Paper PMC6050537, “Inhibition of low-density lipoprotein receptor degradation with a cyclic peptide that disrupts the homodimerization of IDOL E3 ubiquitin ligase† †Electronic supplementary information (ESI) available. See DOI: 10.1039/c8sc01186a” (Chemical Science, 2018)

Legend:
[1] = target: T1, Full length IDOL (1–445) (UniProt Q8WY64 1-445, NT-647-NHS dye (only the labelled copy in the MST assays)); assay: cell-based or functional assay
[2] = target: T1, Full length IDOL (1–445); assay: MST; Monolith NT.115; 6× His IDOL labelled with NT-647-NHS dye at 50 nM, peptides titrated; 10 mM HEPES, 300 mM NaCl, 1 mM TCEP, 0.05% TWEEN-20, pH 8.0, 5% DMSO; details: both partners purified

B1: RINGPep2 (cyclo-CF-Cha-LYT) (peptide)
chain: CFXLYT
HELM: PEPTIDE1{C.F.[Cha].L.Y.T}$PEPTIDE1,PEPTIDE1,1:R1-6:R2$$$V2.0
SMILES: CC(C)C[C@@H]1NC(=O)[C@H](CC2CCCCC2)NC(=O)[C@H](Cc2ccccc2)NC(=O)[C@H](CS)NC(=O)[C@H]([C@@H](C)O)NC(=O)[C@H](Cc2ccc(O)cc2)NC1=O
EC50 of Tat-RINGPep2 (0–35 μM) on LDLR protein levels in HepG2 cells; blocks IDOL homodimerization [1]: 15 to 20 µM | Kd [2]: 4.6 µM
